According to patent publication US20240002532A1:

Target: HER2 (human epidermal growth factor receptor 2) (human) (UniProt P04626)
Assay: cell-based or functional assay

- maximal cytolysis of SKOV3 tumor cells (xCELLigence, donor T cells, E:T 1:1): 90%
Substance: CasMab250 (H/L)-based CAR with medium spacer (IgG4 hinge & CH3 domain) and CD28-CD3ζ1XX intracellular signaling domains
